# B1: oscutarin C (OsPA), Group C prothrombin activator purified from Oxyuranus scutellatus (Coastal Taipan) venom, preparation 17 Apr. 2012 (protein)
# chain 1: ANSLYEEFRSGNIERECIEERCSKEEAREVFEDDEKTETFWNVYVDGDQCSSNPCHYRGTCKDGIGSYTCTCLSGYEGKNCERVLYKSCRVDNGNCWHFCKPVQNDIQCSCAEGYLLGEDGHSCVAGGNFSCGRNIKTRNKREASLPDFVQSQNAILLKKSDNPSPDIRIVNGMDCKLGECPWQAVLVDEKEDAFCGGTILSPIYVLTAAHCINQTKMISVVVGEINISRKNPGRLLSVDKIYVHQKFVPPKKGYEFYEKFDLVSYDYDIAILQMKTPIQFSENVVPACLPTADFANQVLMKQDFGIVSGFGRIFEKGPQSKTLKVLKVPYVDRHTCMLSSESPITPTMFCAGYDTLPRDACQGDSGGPHITAYRDTHFITGIVSWGEGCAQTGKYGVYTKVSKFILWIKRIMRQKLPSTESSTGRL
# chain 2: AQLREYRLAAQLEDWDYNPQPEELSRLSESDLTFKKIVYREYELDFKQEKPRDELSGLLGPTLRGEVGDSLIIYFKNFATQPVSIHPQSAVYNKWSEGSSYSDGTSDVERLDDAVPPGQSFKYVWNITAEIGPKKADPPCLTYAYYSHVNMVRDFNSGLIGALLICKEGSLNADGAQKFFNREYVLMFSVFDESKNWYRKPSLQYTINGFANGTLPDVQACAYDHISWHLIGMSSSPEIFSVHFNGQTLEQNHYKVSTINLVGGASVTANMSVSRTGKWLISSLVAKHLQAGMYGYLNIKDCGNPDTLTRKLSFRERRRIMKWEYFIAAEEITWDYAPEIPSSVDRRYKAQYLDNFSNFIGKKYKKAVFRQYEDSNFTKPTYAIWPKERGILGPVIKAKVRDTVTIVFKNLASRPYSIYVHGVSVSKDAEGAVYPSDPKENITHGKAVEPGQVYTYKWTVLDTDEPTVKDSECITKLYHSAVDMTRDIASGLIGPPLVCKRKALSIRGVQNKADVEQHAVFAVFDENKSWYLEDNIKKYCSNPSSVKKDDPKFYKSNVMYTLNGYASDRTEVWGFHQSEVVEWHLTSVGTVDEIVPVHLSGHTFLSKGKHQDILNLFPMSGESATVTMDNLGTWLLSSWGSCEMSNGMRLRFLDANYDDEDEGNEEEEEDDGDIFADIFNPPEVVIKKEEVPVNFVPDPESDALAKELGLFDDEDNPKQSRSEQTEDDEEQLMIASMLGLRSFKGSVAEEELKHTALALEEDAHASDPRIDSNSAHNSDDIAGRYLRTINRRNKRRYYIAAEEVLWDYSPIGKSQVRSLPAKTTFKKAIFRSYLDDTFQTPSTGGEYEKHLGILGPIIRAEVDDVIEVQFRNLASRPYSLHAHGLLYEKSSEGRSYDDNSPELFKKDDAIMPNGTYTYVWQVPPRSGPTDNTEKCKSWAYYSGVNPEKDIHSGLIGPILICQKGMIDKYNRTIDIREFVLFFMVFDEEKSWYFPKSDKSTCEEKLIGVQSRHTFPAINGIPYQLQGLMMYKDENVHWHLLNMGGPKDVHVVNFHGQTFTEEGREDNQLGVLPLLPGTFASIKMKPSKIGTWLLETEVGENQERGMQALFTVIDKDCKLPMGLASGIIQDSQISASGHVGYWEPKLARLNNTGMFNAWSIIKKEHEHPWIQIDLQRQVVITGIQTQGTVQLLKHSYTVEYFVTYSKDGQNWITFKGRHSKTQMHFEGNSDGTTVKENHIDPPIIARYIRLHPTKFYNTPTFRIELLGCEVEGCSVPLGMESGAIKDSEITASSYKKTWWSSWEPFLARLNLKGRTNAWQPKVNNKDQWLQIDLQHLTKITSIITQGATSMTTSMYVKTFSIHYTDDNSTWKPYLDVRTSMEKVFTGNINSDGHVKHFFNPPILSRFIRIIPKTWNQYIALRIELFGCEVF
# Target: prothrombin
protein,measurement,value
B1,rate of prothrombin activation in the S-2238 two-stage assay (thrombin produced against sampling time),(eg) (9.98e-6 umol/min)
same,specific activity of the prothrombin activator (rate of thrombin production against OsPA concentration),(eg) (5.0e-3 units/mg)

# From patent US20170304407
